Measured values from the Immune Epitope Database (IEDB).

Assays:
HLA-A*02:01 [1] = experiment: IEDB peptide-MHC binding, cellular MHC/competitive/fluorescence; ≥ and ≤ were set here for values at or beyond the usual limits of such assays; settings: source organism: Homo sapiens
HLA-B*27:05 [2] = experiment: IEDB peptide-MHC binding, purified MHC/competitive/fluorescence; ≥ and ≤ were set here for values at or beyond the usual limits of such assays; settings: source organism: hepatitis C virus genotype 1a
HLA-B*40:02 = experiment: IEDB peptide-MHC binding, cellular MHC/competitive/fluorescence; ≥ and ≤ were set here for values at or beyond the usual limits of such assays; settings: source organism: Homo sapiens
HLA-B*52:01 = experiment: IEDB peptide-MHC binding, purified MHC/competitive/radioactivity; filed as Kd, often an IC50 or EC50 that approximates it; ≥ and ≤ were set here for values at or beyond the usual limits of such assays; settings: source organism: Homo sapiens
HLA-A*01:01 [3] = experiment: IEDB peptide-MHC binding, purified MHC/competitive/fluorescence; filed as Kd, often an IC50 or EC50 that approximates it; ≥ and ≤ were set here for values at or beyond the usual limits of such assays; settings: source organism: Mycobacterium tuberculosis variant bovis BCG str. Pasteur 1173P2
HLA-A*02:01 [4] = experiment: as above; settings: source organism: Mycobacterium tuberculosis variant bovis BCG str. Pasteur 1173P2
HLA-A*02:03 [5] = experiment: as above; settings: source organism: Mycobacterium tuberculosis variant bovis BCG str. Pasteur 1173P2
HLA-A*02:06 = experiment: as above; settings: source organism: Mycobacterium tuberculosis variant bovis BCG str. Pasteur 1173P2
HLA-A*03:01 [6] = experiment: as above; settings: source organism: Mycobacterium tuberculosis variant bovis BCG str. Pasteur 1173P2
HLA-A*11:01 [7] = experiment: as above; settings: source organism: Mycobacterium tuberculosis variant bovis BCG str. Pasteur 1173P2
HLA-A*30:01 = experiment: as above; settings: source organism: Mycobacterium tuberculosis variant bovis BCG str. Pasteur 1173P2
HLA-A*31:01 [8] = experiment: as above; settings: source organism: Mycobacterium tuberculosis variant bovis BCG str. Pasteur 1173P2
HLA-A*69:01 [9] = experiment: as above; settings: source organism: Mycobacterium tuberculosis variant bovis BCG str. Pasteur 1173P2
HLA-B*15:01 [10] = experiment: as above; settings: source organism: Mycobacterium tuberculosis variant bovis BCG str. Pasteur 1173P2
HLA-B*15:09 = experiment: as above; settings: source organism: Mycobacterium tuberculosis variant bovis BCG str. Pasteur 1173P2
HLA-B*15:17 = experiment: as above; settings: source organism: Mycobacterium tuberculosis variant bovis BCG str. Pasteur 1173P2
HLA-B*15:42 = experiment: as above; settings: source organism: Mycobacterium tuberculosis variant bovis BCG str. Pasteur 1173P2
HLA-B*18:01 = experiment: as above; settings: source organism: Mycobacterium tuberculosis variant bovis BCG str. Pasteur 1173P2
HLA-B*27:05 [11] = experiment: as above; settings: source organism: Mycobacterium tuberculosis variant bovis BCG str. Pasteur 1173P2
HLA-B*35:01 = experiment: as above; settings: source organism: Mycobacterium tuberculosis variant bovis BCG str. Pasteur 1173P2
HLA-B*39:01 = experiment: as above; settings: source organism: Mycobacterium tuberculosis variant bovis BCG str. Pasteur 1173P2
HLA-B*40:01 [12] = experiment: as above; settings: source organism: Mycobacterium tuberculosis variant bovis BCG str. Pasteur 1173P2
HLA-B*45:06 = experiment: as above; settings: source organism: Mycobacterium tuberculosis variant bovis BCG str. Pasteur 1173P2
HLA-B*46:01 = experiment: as above; settings: source organism: Mycobacterium tuberculosis variant bovis BCG str. Pasteur 1173P2
HLA-B*48:01 = experiment: as above; settings: source organism: Mycobacterium tuberculosis variant bovis BCG str. Pasteur 1173P2
HLA-B*51:01 = experiment: as above; settings: source organism: Mycobacterium tuberculosis variant bovis BCG str. Pasteur 1173P2
HLA-B*57:01 = experiment: as above; settings: source organism: Mycobacterium tuberculosis variant bovis BCG str. Pasteur 1173P2
HLA-B*58:01 [13] = experiment: as above; settings: source organism: Mycobacterium tuberculosis variant bovis BCG str. Pasteur 1173P2
HLA-B*83:01 = experiment: as above; settings: source organism: Mycobacterium tuberculosis variant bovis BCG str. Pasteur 1173P2
HLA-A*01:01 [14] = experiment: IEDB peptide-MHC binding, purified MHC/direct/fluorescence; filed as Kd, often an IC50 or EC50 that approximates it; ≥ and ≤ were set here for values at or beyond the usual limits of such assays; settings: source organism: Brucella abortus
HLA-A*02:01 [15] = experiment: as above; settings: source organism: Brucella abortus
HLA-A*02:03 [16] = experiment: as above; settings: source organism: Brucella suis 1330
HLA-A*02:11 = experiment: as above; settings: source organism: Brucella suis 1330
HLA-A*02:12 = experiment: as above; settings: source organism: Brucella suis 1330
HLA-A*02:19 = experiment: as above; settings: source organism: Brucella suis 1330
HLA-A*03:01 [17] = experiment: as above; settings: source organism: Brucella abortus
HLA-A*11:01 [18] = experiment: as above; settings: source organism: Brucella abortus
HLA-A*26:01 = experiment: as above; settings: source organism: Brucella suis 1330
HLA-A*31:01 [19] = experiment: as above; settings: source organism: Brucella abortus
HLA-A*69:01 [20] = experiment: as above; settings: source organism: Brucella abortus
HLA-B*07:02 = experiment: as above; settings: source organism: Brucella abortus
HLA-B*08:01 = experiment: as above; settings: source organism: Brucella suis 1330
HLA-B*15:01 [21] = experiment: as above; settings: source organism: Brucella abortus
HLA-B*27:05 [22] = experiment: as above; settings: source organism: Brucella abortus
HLA-B*40:01 [23] = experiment: as above; settings: source organism: Brucella abortus
HLA-B*44:02 = experiment: as above; settings: source organism: Brucella abortus
HLA-B*58:01 [24] = experiment: as above; settings: source organism: Brucella abortus
HLA-C*12:03 = experiment: as above; settings: source organism: Brucella abortus bv. 1 str. 9-941

Which IC50 (HLA-A*02:01 [1]) does the source give for FLMDFIHQV here?
Its IC50 is 240 nM.

With GSAAICGKY as the sequence, how does the IC50 (HLA-B*27:05 [2]) read?
The IC50 was 4.82 µM.

How did the IC50 (HLA-B*40:02) turn out when GSFSRFYSL was run?
Its IC50 is 300 nM.

With QQITQTEV as the sequence, how does the Kd (HLA-B*52:01) read?
Its Kd is at least 30.2 µM.

For KPIPHRTVL, which Kd (HLA-A*01:01 [3]) is on record?
Its Kd is 570 nM.

And the Kd (HLA-A*02:01 [4])?
Its Kd is at least 20 µM.

What about the Kd (HLA-A*02:03 [5]) of the same sequence?
Its Kd is at least 20 µM.

And the Kd (HLA-A*02:06)?
Its Kd is 2830 nM.

What about the Kd (HLA-A*03:01 [6]) of the same sequence?
Its Kd is 2290 nM.

And the Kd (HLA-A*11:01 [7])?
Its Kd is 125 nM.

What about the Kd (HLA-A*30:01) of the same sequence?
Its Kd is 763 nM.

And the Kd (HLA-A*31:01 [8])?
The Kd was at least 20 µM.

And the Kd (HLA-A*69:01 [9])?
The Kd was at least 20 µM.

What about the Kd (HLA-B*15:01 [10]) of the same sequence?
The Kd was at least 20 µM.

What about the Kd (HLA-B*15:09) of the same sequence?
The Kd was 1320 nM.

What about the Kd (HLA-B*15:17) of the same sequence?
Its Kd is at least 20 µM.

What about the Kd (HLA-B*15:42) of the same sequence?
Its Kd is at least 5 µM.

What about the Kd (HLA-B*18:01) of the same sequence?
Its Kd is at least 20 µM.

And the Kd (HLA-B*27:05 [11])?
Its Kd is at least 20 µM.

What about the Kd (HLA-B*35:01) of the same sequence?
The Kd was 623 nM.

And the Kd (HLA-B*39:01)?
Its Kd is 18.8 nM.

What about the Kd (HLA-B*40:01 [12]) of the same sequence?
The Kd was at least 20 µM.

What about the Kd (HLA-B*45:06) of the same sequence?
The Kd was at least 5 µM.

And the Kd (HLA-B*46:01)?
Its Kd is at least 20 µM.

And the Kd (HLA-B*48:01)?
Its Kd is at least 20 µM.

And the Kd (HLA-B*51:01)?
Its Kd is at least 20 µM.

What about the Kd (HLA-B*57:01) of the same sequence?
Its Kd is at least 20 µM.

And the Kd (HLA-B*58:01 [13])?
The Kd was at least 20 µM.

What about the Kd (HLA-B*83:01) of the same sequence?
Its Kd is 762 nM.

Which results are given for KLYERNTAF?
Kd (HLA-A*01:01 [14]): ≥ 20 µM; Kd (HLA-A*02:01 [15]): 286 nM; Kd (HLA-A*02:03 [16]): 27 nM; Kd (HLA-A*02:11): 9 nM; Kd (HLA-A*02:12): 88 nM; Kd (HLA-A*02:19): ≥ 5 µM; Kd (HLA-A*03:01 [17]): 511 nM; Kd (HLA-A*11:01 [18]): 3.99 µM; Kd (HLA-A*26:01): ≥ 20 µM; Kd (HLA-A*31:01 [19]): 138 nM; Kd (HLA-A*69:01 [20]): ≥ 20 µM; Kd (HLA-B*07:02): ≥ 20 µM; Kd (HLA-B*08:01): 112 nM; Kd (HLA-B*15:01 [21]): 57.8 nM; Kd (HLA-B*27:05 [22]): 325 nM; Kd (HLA-B*40:01 [23]): ≥ 20 µM; Kd (HLA-B*44:02): ≥ 20 µM; Kd (HLA-B*58:01 [24]): 284 nM; Kd (HLA-C*12:03): 266 nM
